Laboratory results: US20260167731A1 (DOMAIN THERAPEUTICS, published 2026)
Values joined by “and” are separate entries in the source; they are usually repeats but may differ in a detail not shown here. Equal entries are not always repeated.

Columns and labels:
[1] = target: T1, human CCR8 (human, UniProt P51685 1-355); assay: cell-based or functional assay
[2] = target: pm4, modified CCR8 related peptide (human, sulfated tyrosines at Y15 and Y16); assay: ELISA on coated CCR8 peptide (500 ng/mL), OD [cont.]
Method in brief: (§1)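 OD after 15 min TMB development reflects binding of each anti-CCR8 mAb, tested at 1 μg/mL and diluted 1/10, to CCR8-related peptides adsorbed at 500 ng/mL from carbonate/bicarbonate buffer. Antibody incubation lasted 90 min at room temperature.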

[3] = target: pm8, modified CCR8 related peptide (human, sulfated tyrosines at Y15, Y16 and Y17); assay: as above
Method in brief: as §1

[4] = target: pm6, modified CCR8 related peptide (human, sulfated tyrosines at Y16 and Y17); assay: as above
Method in brief: as §1

[5] = target: pm5, modified CCR8 related peptide (human, sulfated tyrosines at Y15 and Y17); assay: as above
Method in brief: as §1

[6] = target: pm1, modified CCR8 related peptide (human, sulfated tyrosine at Y15); assay: as above
Method in brief: as §1

[7] = target: pm3, modified CCR8 related peptide (human, sulfated tyrosine at Y17); assay: as above
Method in brief: as §1

[8] = target: pm2, modified CCR8 related peptide (human, sulfated tyrosine at Y16); assay: as above
Method in brief: as §1

[9] = target: T2, pwt1, unmodified CCR8 related peptide (human, none (non-sulfated Y15, Y16, Y17)); assay: as above
T2 construct: First 34 amino acids of human CCR8, synthetic; also called unmodified peptide
Method in brief: as §1

[10] = target: T3, hCCR8 SNAP-tag (human, UniProt P51685 1-355, SNAP-tag labelled with Lumi4-Terbium); assay: HTRF Tag-lite, inhibition of hCCL1-AF647 binding to SNAP-tag hCCR8 on HEK-293
T3 construct: also called human CCR8 engineered with a SNAP-tag at the N-terminus; not shown: SNAP-tag at the N-terminus

[11] = target: T1, human CCR8; assay: flow cytometry, HUT78 cells (endogenous CCR8)
Description: The same staining protocol was applied on human CCR8 transfected CHO cell line versus wild type CHO cell line, cutaneous T cell lymphoma HUT78 cell line and human activated T cell model.
Briefly, 1·10⁵ cells per well in a 96 well plate were incubated with a dilution of unconjugated anti-CCR8 mAb at 10 μg/mL then diluted at 1/3.33, 4 dilution points (during 30 min at 4° C.). In human activated T cells model, prior to mAb incubation, cells were first incubated with 200 nM of hCCL1 (R&D Systems, Minneapolis, MN, USA) or buffer PBS (Invitrogen by Thermofisher Scientific, Illkirch-Graffenstaden, France) supplemented by 2% Fetal Bovine Serum (Invitrogen by Thermofisher Scientific, Illkirch-Graffenstaden, France) and 2 mM EDTA (Invitrogen by Thermofisher Scientific, Illkirch-Graffenstaden, France) during 1 hour at 4° C. To determine EC50 value, 8 concentrations of anti-CCR8 mAb were tested. Unbound antibodies were washed away with PBS (Invitrogen by Thermofisher Scientific, Illkirch-Graffenstaden, France) supplemented by 2% Fetal Bovine Serum (Invitrogen by Thermofisher Scientific, Illkirch-Graffenstaden, France) and 2 mM EDTA (Invitrogen by Thermofisher Scientific, Illkirch-Graffenstaden, France). Subsequently, cells are centrifuged (5 min at 400 g) and bound antibody is detected with F(ab′)₂-Goat anti-Mouse IgG (H+L) Cross-Adsorbed Secondary Antibody, Alexa Fluor 488 (dilution 1/500) (Invitrogen by Thermofisher Scientific, Illkirch-Graffenstaden, France) or with F(ab′)₂-Goat anti-Human IgG Fc Secondary Antibody, PE (Invitrogen by Thermofisher Scientific, Illkirch-Graffenstaden, France) (dilution 1/1000) at 4° C. for 30 min. Detection reagent is washed away and cells are centrifuged (5 min at 400 g) and resuspended in 30 μL PBS. Bound detection antibody is quantified on a MacsQuant16 (Miltenyi, Gladbach, Germany) (B1 or B2 channel, 5000 events per acquisition). During the experiment, the respective isotype mAb controls (mouse IgG1, mouse IgG2a, mouse IgG2b, mouse IgG3 or human IgG1) (Biolegend, Amsterdam, The Netherlands) are included to exclude any unspecific binding events.
EC50 values were determined via nonlinear fit “log(agonist)vs.response−Variable slope (four parameters)” function of Graphpad prism. EC50 values were not constantly determined in the same experiments.

[12] = target: T1, human CCR8; assay: cell-based or functional assay; remark: listed apart in the source
[13] = target: T1, human CCR8; assay: cell-based or functional assay; remark: listed apart in the source
[14] = target: T1, human CCR8; assay: cell-based or functional assay; remark: listed apart in the source
[15] = target: T1, human CCR8; assay: cell-based or functional assay; remark: listed apart in the source
[16] = target: T4, CD20 (on B cells) (human, UniProt P11836); assay: flow cytometry on PBMC of healthy donors, B cell gate (CD3-CD19+), % of binding, mean of two donors
T4 construct: native on the surface of B cells (CD3-CD19+) in PBMC of healthy donors; the sheet names the cell type only
T4 sequence (single chain, looked up): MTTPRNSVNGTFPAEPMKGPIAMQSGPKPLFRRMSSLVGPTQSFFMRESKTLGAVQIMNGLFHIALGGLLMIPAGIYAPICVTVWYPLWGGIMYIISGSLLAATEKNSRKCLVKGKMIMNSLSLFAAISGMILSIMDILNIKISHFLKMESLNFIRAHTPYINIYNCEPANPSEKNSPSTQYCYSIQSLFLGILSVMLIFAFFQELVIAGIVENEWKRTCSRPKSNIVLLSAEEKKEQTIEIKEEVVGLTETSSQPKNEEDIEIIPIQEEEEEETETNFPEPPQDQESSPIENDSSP

pm4, modified CCR8 related peptide (human, sulfated tyrosines at Y15 and Y16), sequence (peptide, as listed by the source): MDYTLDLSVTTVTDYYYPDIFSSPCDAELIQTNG
pm1, modified CCR8 related peptide (human, sulfated tyrosine at Y15), sequence (peptide, as listed by the source): as above
pm3, modified CCR8 related peptide (human, sulfated tyrosine at Y17), sequence (peptide, as listed by the source): as above
pm8, modified CCR8 related peptide (human, sulfated tyrosines at Y15, Y16 and Y17), sequence (peptide, as listed by the source): as above
pm5, modified CCR8 related peptide (human, sulfated tyrosines at Y15 and Y17), sequence (peptide, as listed by the source): as above
T2 sequence (peptide, as listed by the source): as above
pm6, modified CCR8 related peptide (human, sulfated tyrosines at Y16 and Y17), sequence (peptide, as listed by the source): as above
pm2, modified CCR8 related peptide (human, sulfated tyrosine at Y16), sequence (peptide, as listed by the source): as above

B1: humanized anti-CCR8 mAb 2-13 (antibody, human IgG1, kappa)
heavy: not shown
light: DIVMTQAAPSLSVTPGESASISCTSSKSLLHSNGNTYLYWFLQKPGQSPQLLIYRMSNLASGVPDRFSGSGSGTAFTLKISRVEAEDVGVYYCMQHREYPFTFGSGTKLEIKRTVAAPSVFIFPPSDEQLKSGTASVVCLLNNFYPREAKVQWKVDNALQSGNSQESVTEQDSKDSTYSLSSTLTLSKADYEKHKVYACEVTHQGLSSPVTKSFNRGEC
notes: Humanized, human IgG1 allotype G1m17 Fc with the terminal lysine deleted and the SDIE mutations
ADCC EC50, HUT78 targets, NK cells Donor 1 [1]: 6.43 pM | ADCC EC50, HUT78 targets, NK cells Donor 2 [1]: 2.16 pM | binding result [2]: binds | binding result [3]: binds | binding result [4]: binds | binding result [5]: binds | binding result [6]: binds | binding result [7]: binds | binding result [8]: binds | binding result [9]: binds | IC50 [10]: 0.09 µg/mL and 0.6 nM | Ki [10]: 0.05 µg/mL and 0.3 nM | % of labelled cells [11]: 32% | IC50, CCL1 induced hCCR8 Gi2 signaling (BRET, HEK-293) [12]: 0.035 µg/mL and 0.232 nM | hCCL1 (100 nM) residual response in %, Protocol #2, mAb 0.08 µg/mL ([…] nM) [13]: 74% | hCCL1 (100 nM) residual response in %, Protocol #2, mAb 0.4 µg/mL (2.67 nM) [13]: 54% | hCCL1 (100 nM) residual response in %, Protocol #2, mAb 10 µg/mL (66.7 nM) [13]: 40% | hCCL1 (100 nM) residual response in %, Protocol #3, mAb 0.05 µg/mL (0.33 nM) [13]: 89% | hCCL1 (100 nM) residual response in %, Protocol #3, mAb 0.5 µg/mL (3.33 nM) [13]: 63% | hCCL1 (100 nM) residual response in %, Protocol #3, mAb 5 µg/mL (33.3 nM) [13]: 51% | IC50, CCL1 induced hCCR8 Gi2 signaling (BRET) at pH 6.5 [14]: 0.025 µg/ml and 0.165 nM | IC50, CCL1 induced hCCR8 Gi2 signaling (BRET) at pH 7.4 [14]: 0.035 µg/ml and 0.232 nM | ADCP % Max of phagocytosis, HUT78 targets, monocyte-derived macrophages Donor 9 [15]: 9.65%

B2: afucosylated humanized anti-CCR8 mAb 2-16 (antibody, human IgG1, kappa)
heavy: not shown
light: B1 light
modifications: afucosylated Fc glycan
notes: Same chains as 2-13, produced with 2-deoxy-2-fluoro-L-fucose (afucosylated)
ADCC EC50, HUT78 targets, NK cells Donor 1 [1]: 2.24 pM | ADCC EC50, HUT78 targets, NK cells Donor 2 [1]: 0.42 pM | % of labelled cells [11]: 34% | EC50 [11]: 400 pM | MFI fold change to isotype ctrl [11]: 2.5 fold | ADCP % Max of phagocytosis, HUT78 targets, monocyte-derived macrophages Donor 9 [15]: 8.29%

B3: Rituximab (antibody, V domains shown)
VH: QVQLQQPGAELVKPGASVKMSCKASGYTFTSYNMHWVKQTPGRGLEWIGAIYPGNGDTSYNQKFKGKATLTADKSSSTAYMQLSSLTSEDSAVYYCARSTYYGGDWYFNVWGAGTTVTVSA
VL: QIVLSQSPAILSASPGEKVTMTCRASSSVSYIHWFQQKPGSSPKPWIYATSNLASGVPVRFSGSGSGTSYSLTISRVEAEDAATYYCQQWTSNPPTFGGGTKLEIK
EC50 (read off the curve) [16]: ~0.1 µg/mL
